Experiment: soluble on expression in E. coli; label from the status in PepcDB or PDB records

Sequence | soluble on expression in E. coli
MGSDKIHHHHHHMTTVLEKFEKLKTEHAPGQEVRQKTPAFEELLIGEKLEGRTVDFSHGDVDAFLPTPGAFEEFSDGVHSGGKQAYTVYRGLADLREILSVRLTSFTGAPVNAADNLIITPGTQGALFLSVAATVAAGDKVAIVQPDYFANRKLVEFFEAEMLPVQLDYLGTDKAAGLDLNQLEAAFRDGARVFVFSNPNNPTGAVYSTEEIDAIAALADRYGAMVIVDQLYSRLLYEGTEYQHLRAVGGTGRDNVITIMGPSKTESLSGYRLGVAFGPSSVIERMERLQAIVSLRAAGYNQAVLQTWFSEPDGWMSERIKLHQAIRDDLLTRFRARADVAVRTPQAGSYMFAKLPRLRVSPIDFVKILRHQATVIVTPGSEFSPHTASSIRLNFSQNHAAATGAVERLVTLIERYREARP | not soluble
MAGDPMTYRDFIGRLKENGKLVEIQQPVSPIFEASRIAKKTKGPVLFHNVSGSKVIMNLLGSRDELSSMLGVPKEEIIKKLSEVSPEGEVRLVPGSPTLEVIESEVDLTKLPILTHFEKDGAPYITAGIVVSEYEGVMNASIHRLMLVGKDKLAARLVPPRHTYLLHKKAAEKGETLPVAIVLGCDPTIIYATSTRVPAGKEFEYAAALRGTPVEVFECSNGIKVPHSEIILEGYIDTKERVDEGPFVDITGTYDMVRKEPVIHITRIIHRKDPIYHGILPAGPEHLLMMGVPYEPRIYRAVGEVTTVKNVVLTEGGCCYLHAVVQIEKQTEGDAKNAIMAAFAAHTSLKHVVVVDEDINIFDPNDVEFAIATRVKGDMDILTITNVRGSSLDPRGASDGTTTKVGIDATKVLIEKENFERAIIPEELEHHHHHH | not soluble
MRDERLSKIISMFQAHIRGYLIRKAYKKLQDQRIGLSVIQRNIRKWLVLRNWQWWKLYSKVKPLL | soluble
GSADAPRDRHRTIVVGGDRDYPPYEFIDQNGKPAGYNVELTRAIAEVMGMTVEFRLGAWSEMFSALKSGRVDVLQGISWSEKRARQIDFTPPHTIVYHAIFARRDSPPAAGLEDLRGRKVALHRDGIMHEYLAERGYGKDLVLTPTPADALRLLAAGGCDYAVVAMVPGMYIIRENRLTNLVPVARSIAAQRYGYAVRQGDAELLARFSEGLAILRKTGQYEAIRAKWLGVLEP | soluble
MKIAIEGCMHGDLDNVYKTIQHYEQIHNTKVDLLLCCGDFQAVRNEKDMDSLNVPRKYREMKSFWKYYSGQEVAPIPTIFIGGNHEASNYLWELYYGGWAATNIYFLGFAGVVKFGNVRIGGLSGIYNERHYRSGHFERPPYNESTIRSVYHVRDYDVQKLMQLEEPLDIFLSHDWPVGITDYGDSESLMRQKPYFRQEIEEKTLGSKPAALLLEKLKPQYWFSAHLHCKFAAAVQHGNDGSVTKFLALDKCLPGKKFLQIIEIESEPGPFEVLYDEEWLAITRKFNSIFPLTRRYTNVRYTIPNKLPTKKWERTDIPASLAPSDTYSVKLFIYSFYLPIVMKLHQAPMTEMFSAVSRIKHVLLCIADLPTYDSEEIPIDDIDEIEEMEEAKADDHTRDDA | soluble
MPREYDNLICYKQLSIDDHGKLKFFLEKHSTKEGTWGKLSLSEGEIDFIFQNGLGQELSRIRLDKNNRQLSIPPASWHKIIPISASFNAQLGFYCKPHRYFNKKYGLTEVHRDLLYVYHTYLSHLGSLTTLDVGCGSGRNLLYLTQLGHIVTGIDINQTALENIQIIAQKENLSLLNILSQDLNQPQALAPDHYDFVCSTVTLQFLNASRIPSLLIELQEATKKNGYHFLVFPVQSELYSLPSSFTFLPKQEELYHFYQDSGWSILEYKESVGHLHKQDEMGRPVQGLFALLLAQKVLLEHHHHHH | not soluble
MAHHHHHHMHTKHTRRPVDTHKRNTMPLIRPGMPKPPQGFDVVLAKLEEYDEQMKLATQEESKGVVGVTTRPRHSGGFGARKRMRDDDANAEDGTVAPPAEASSTVAAAESEAGTSTAGDDNAEAKEEPPIPPLWRMAAINRARTRYVFLAYYKQHIISKEVYDYCVDTRLIDGGLARRWRLPGYERLCCTACGVPGAASLAASITSKYALRDRQERRLTTSASQQRIHDTATCLCRVPAAQRRSKHFVACAACGCHGCCSADAMKGPKEGDGGEKTDKTREEPSVNAPGRGEA | not soluble
ADINHGENVFTANCSACHAGGNNVIMPEKTLQKDALSTNQMNSVGAITYQVTNGKNAMPAFGGRLSDDDIEDVASFVLSQSEKSWN | soluble
MNEQRLSMRLERVATHVPAGARLADIGSDHGYLPVALLNRGAVSAAVAGEVALTPFYAAERTVRENDLDQQISVRLADGLAAIEPTDRITAISLCGMGGETIRDILESGKARLSGQERLILQPNGGEQPLRVWLMEHNYRILDEEVLRENRFDYEIIVAERTGPMIYTAEQLYFGPIQMQTRSPAFLLKWQRLLGKKHKALSNFARARKAVPEEKMQDLAQQIRWITALLN | not soluble
VALESATVGSMHERTVRARTATGIVEGFTRDGVHRWRSIPYARAPVGSLRFRAPQPAQPWPGVRHCHTFANCAPQQRRYTVMGIGRYQTRSEDCLTLNVVTPEEPATQPLPVMVFIHGGGYILGSSATPIYDGAALARRGCVYVSVNYRLGALGCLDLSSLSTPQITLDSNVYLRDLVLALRWVHDNIAEFGGDPGNVTIFGESAGAHITATLLAVPAAKGLFARAISESPAAGMVRSREVAAEFAARFANLIGARTQDAANALMQASPAQLVEAQHHLIRQGMRKRLGAFPIGPVFGDDYLPMDPVEAMRSGRVHAVPLIVGTNAEEGRLFTRFLGMLPTNEPMVEELLSGMKPADRERITAAYPNYPAPSACIQLGGDFAFSSAAWQIAEAHGANAPTYLYRYDYAPRTLRWSGFGATHATELFAVFDIYRTRFGALLTAAADRRAALRVSNEVQRRWRCFSQIGVPGDDWPAYTQDDRAVLVFDRRCRIEFDPHQHRRIAWDGFSLAN | not soluble
MGSDKIHHHHHHMTNTLKTSYQKTPYKLGGNGPRNVGVLTEALQNIDDNSESDIYGNGAVIENFETKIAKILGKQSAVFFPSGTMAQQIALRIWADRKENRCVAYHPLSHLEIHEQDGLKELQQITPILLGTANRLLTIDDIKSLREPVSSVLIELPQREIGGQLPSFEELEEISEYCHEQGISLHLDGARLWEIMPFYQKSAEDICSLFDSVYVSFYKGIGGIAGAILAGNADFVQEAKIWKRRYGGDLISLYPYILSADYYFEKRIGKMAEYFEAAKGLAERFNSCPGLKTVPEVPISNMFHVYFEKSADEVGTILTKIQDETGVGISGYLQEKSADVCAFEVSVGDAFAEIPTKDLESAFECLEKELRL | not soluble
MESGHRFDAQTLHSFIQAVFRQMGSEEQEAKLVADHLIAANLAGHDSHGIGMIPSYVRSWSQGHLQINHHAKTVKEAGAAVTLDGDRAFGQVAAHEAMALGIEKAHQHGIAAVALHNSHHIGRIGYWAEQCAAAGFVSIHFVSVVGIPMVAPFHGRDSRFGTNPFCVVFPRKDNFPLLLDYATSAIAFGKTRVAWHKGVPVPPGCLIDVNGVPTTNPAVMQESPLGSLLTFAEHKGYALAAMCEILGGALSGGKTTHQETLQTSPDAILNCMTTIIINPELFGAPDCNAQTEAFAEWVKASPHDDDKPILLPGEWEVNTRRERQKQGIPLDAGSWQAICDAARQIGMPEETLQAFCQQLAS | soluble
GMAQAQTQGQEEEQKKKILIVVTHGPEDLDRTYAPLFMASISASMEYETSVFFMIKGPKLLDKKWQEEERKKGGNPFIHFFDMAKENGVKMYVCVQSLKDMCHMKEDDVVEGIELVGGSTLIDLTLEADRTLFF | soluble
MSPGPQSGGQERGSMERKMVELEDTGLTFATEVDLERLQALAAEWLQVIGEDPGREGLLKTPERVAKAWAFLTRGYRQRLEEVVGGAVFPAEGSEMVVVKGVEFYSMCEHHLLPFFGKVHIGYIPDGKILGLSKFARIVDMFARRLQVQERLAVQIAEAIQEVLEPQGVGVVVEGVHLCMMMRGVEKQHSRTVTSAMLGVFRENQKTREEFLSHLRDGTA | soluble
MSHPALTQLRALRYFDAIPALEPHLLDWLLLEDSMTKRFEQQGKRVSVTLIREAFVGQSEVEEASGLLPSESRYWLREILLCADGEPWLAGRTVVPESTLCGPEQVLQHLGKTPLGRYLFTSSTLTRDFIEIGRDATLWGRRSRLRLSGKPLLLTELFLPASPLY | not soluble
MGHHHHHHSHFRNCILGLAVGDALGMPVEGLSIENIRQLYGEVRDFLPSPYGDLNAGEWTDDTEQMVVLAESILETVYFDPENFAERLKRWFLETNSRRIGPSSTKAISNLMRGVHWTRAGVFSDTCGAAMRVAPIGLVYHFSLNLVERYAEISARVTHTGTAAIGGAVAVAVAIACNVLDFSDEEMLEEVLRRVEAYDNLLAEKIRYANEISDRDVEYAVEKLGNSISSLDVVPMAFYSYFAGKDFEESLIKAVNAGGDADSIAAICGAIKGAKGFAIPERWLEGLKDREFLEELATK | not soluble
MSFRPEYKEYFKQGATARIYNGAFEDAGFYDEVDIKEFEYSREEKTFYYPCPCGDRFEISLEDLRNGEVVARCPSCSLIVCTVYEAEDLEKYL | not soluble
MIFHDVVESDLHDWECDDDYVCKFCTVRVNNWKIEIYQLWHYFFFLKDVVGVIVRKLNIAIDRDYTCEGLHVAGLIGYDYDKVEEYTGMCTICKLGDCGGMCRRVVEHCKKCGPIQEGVFETPFEKPHHFESLEITSFTIDCLLYGNRFRPTLVNFKNAPITVDSLSINAPSSGIPKVFLSAMMISKWKLLILKTCEDSPYAMEELQLSLTGKMLEEMSNNDYKVKHFRKCFPTKKMSIKILSQIENIQDIRKLCIQEKNLDLAIDIICDKSLLLKFWVSQKNTRGSFWKMKML | not soluble
MKFAIIIPFYNAEKRLALSIDSIIKQTYSFLKHVEVLLINDGSTDRSSAIAHSYAEKYPSNIRVFDVPNGGPSKARNIGIHNVQEDTDFVGFLDADDLLSPNMLFSMVNFLEKSAVNMLVPAFYYLDDFGKKQKISPHKLNDRFTNGNRVVAIEKEPQAIHFYIGGTFFRFESLKQFVFDETLNFAEDQLLITKFLLENRSYGLIADAGYYYYRDLKQKGSLVSSAWKQPERYTPFLQKVYQTYLTNSKEIFGEVIPYVQYLIAYHAKLFFYKENIYFKEVLNEQEQEIFVRELQKILQEVGPEMIVALDTPLVVKEMMLSILRNGWPVQFKTAELEEVPLVTVKENYRPGKAVTVELLLEEARETLSDGGEFFASTSVGTAQTKVVKRKTAQTIWDIVVREEGTLEKVVTRLKPYQLKVQVFYQDKNQKITMTDLNVIKSVLGKLKRNKALKRKFKQGGVSLEHHHHHH | soluble
MILQRLFRFSSVIRSAVSVHLRRNIGVTAVAFNKELDPIQKLFVDKIREYKSKRQTSGGPVDASSEYQQELERELFKLKQMFGNADMNTFPTFKFEDPKFEVIEKPQALEHHHHHH | not soluble
MLSEQLLAQQHLPEKLKKNIPGLYFHGRVGRGKTMLMDLFYQHLAIKNKKRIHFHHFMESVHQQLAQLTGQSEPLSHIAAKWAQNIDLLCFDEFYVSDIGDAMLLSGLFSALFKQGVTLVATSNCQPEQLYRNGLQRERFLPTIALINQHCQIVSINGDVDHRRTKLSKNSCYNNYFLLANEGNEKLIERFQSLTDAEMLVSGEIEINHRQLCYLAQSANVIFFDFFALCSGPRSQRDYMVLAKDFDTVCIANVPKFSGELVPAVFSGVEDSYQRSGVLMGELQQLDDEARRFIALVDEFYDQNVKLIVSAQVDIFELYQGQQLAFEFERCQSRLIEMQQSLEHHHHHH | not soluble
MGSDKIHHHHHHMHVKRAATAGFCMGVGLALKKLDRELDNNAKDIATLGPIIHNPQVLRRYEQKGVRCYTDPAEARSGQRVVIRAHGIPEETESALAAAGVDLVDATCPKVKRAQLGIARQREKGRTLLLFGEHDHPEVQGLLSYAGEGAVVFGSLEELQNGPLEDDRHYFLAAQTTQDKHAFTSVIEWVRRRFGDHVPVLDTICDATRERQDEAIAIARSVDVMVVVGGFASGNTRRLAEVAQAQGVPTYHVETPDQLPLDAIRGYGAAGLTAGASTPKSIIDETQKLLESL | not soluble

— the DeepSol protein solubility set
